T1: domains 5-7 of CD22 conjugated to green fluorescent protein, expressed in Jurkat cells (human, UniProt P20273 414-687)
T1 construct: also called Jurkat-CD22 (D5-D7)-GFP; not shown: membrane anchor and green fluorescent protein (GFP) fusion
T1 sequence: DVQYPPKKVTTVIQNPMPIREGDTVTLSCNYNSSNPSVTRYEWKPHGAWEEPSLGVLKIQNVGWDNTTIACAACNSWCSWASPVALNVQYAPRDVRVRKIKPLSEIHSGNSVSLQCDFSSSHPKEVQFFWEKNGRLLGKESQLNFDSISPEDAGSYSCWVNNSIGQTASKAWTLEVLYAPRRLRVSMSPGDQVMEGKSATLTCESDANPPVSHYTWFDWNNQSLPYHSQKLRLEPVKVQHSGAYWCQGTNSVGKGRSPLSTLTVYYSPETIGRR

T2: full-length human CD22 (human, UniProt P20273 20-847)
T2 construct: CD22 on the cell surface: natural on Raji and NALM-6 cells, introduced in Jurkat cells (full-length) and in K562+CD22 cells; The K562 construct is not described further; also called Jurkat-CD22-full; CD22 on Raji, NALM-6 and K562+CD22 cells
T2 sequence: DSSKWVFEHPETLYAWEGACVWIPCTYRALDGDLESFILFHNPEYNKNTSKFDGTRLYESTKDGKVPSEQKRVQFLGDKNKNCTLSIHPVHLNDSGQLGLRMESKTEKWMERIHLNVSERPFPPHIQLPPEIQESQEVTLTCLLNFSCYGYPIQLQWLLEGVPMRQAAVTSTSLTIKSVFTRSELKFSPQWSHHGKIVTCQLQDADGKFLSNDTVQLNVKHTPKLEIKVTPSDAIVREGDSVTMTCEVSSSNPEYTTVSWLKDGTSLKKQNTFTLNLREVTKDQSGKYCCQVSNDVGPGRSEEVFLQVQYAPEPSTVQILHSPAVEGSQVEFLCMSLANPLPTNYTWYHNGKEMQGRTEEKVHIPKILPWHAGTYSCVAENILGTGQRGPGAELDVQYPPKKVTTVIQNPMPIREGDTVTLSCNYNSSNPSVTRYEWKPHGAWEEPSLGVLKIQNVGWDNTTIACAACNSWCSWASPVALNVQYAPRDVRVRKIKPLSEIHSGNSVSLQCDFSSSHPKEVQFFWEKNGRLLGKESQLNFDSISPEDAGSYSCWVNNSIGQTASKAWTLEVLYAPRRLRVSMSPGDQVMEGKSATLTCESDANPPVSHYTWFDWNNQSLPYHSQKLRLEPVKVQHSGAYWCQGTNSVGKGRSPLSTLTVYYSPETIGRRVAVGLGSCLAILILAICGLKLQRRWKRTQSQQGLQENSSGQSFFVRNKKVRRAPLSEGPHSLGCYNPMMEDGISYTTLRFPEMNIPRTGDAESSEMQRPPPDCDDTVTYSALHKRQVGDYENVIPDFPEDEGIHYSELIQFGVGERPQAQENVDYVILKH

B1: phage clone 1 (anti-CD22 clone 1) (scFv, V domains shown)
VH: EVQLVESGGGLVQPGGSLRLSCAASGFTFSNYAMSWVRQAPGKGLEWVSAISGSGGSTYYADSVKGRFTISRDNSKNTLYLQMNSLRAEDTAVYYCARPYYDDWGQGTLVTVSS
VL: QSVVTQPPSVSAAPGQKVTISCSGSSSNIGNNYVSWYQQLPGTAPKLLIYENNKRPSGIPDRFSGSKSGTSATLGITGLQTGDEADYYCGTWDSSLSAGAVFGGGTKLTVLG
B2: phage clone 2 (anti-CD22 clone 2) (scFv, V domains shown)
VH: QVQLVESGGGLVQPGGSLRLSCAASGFTFSNYAMSWVRQAPGKGLEWVSSISGSGGSTYYADSVKGRFTISRDTSKNTLYLQMNSLRAEDTAVYYCARYGSAAWMDSWGQGTLVTVSS
VL: DIQLTQSPSSLSTSVGDRVTITCQASHDIRNYLNWYQQKPGKAPNLLIYAASNLQTGVPSRFSGRGSGTDFTLTISSLQPEDIATYYCQQYDGLPLTFGQGTRLEIKR

Key:
[1] = molecular target: T1, domains 5-7 of CD22 conjugated to green …; test: flow cytometry, phage clone on Jurkat cells expressing domains 5-7 of CD22-GFP
full-length human CD22 [2] = molecular target: T2, full-length human CD22; test: flow cytometry, phage clone on Raji cells and Jurkat cells expressing full-length CD22
full-length human CD22 [3] = molecular target: T2, full-length human CD22; test: flow cytometry, phage clone on NALM-6 cells
[4] = molecular target: T1, domains 5-7 of CD22 conjugated to green …; test: flow cytometry, phage clone on cells

Binder | binding result [1] | binding result (full-length human CD22 [2]) | binding result (full-length human CD22 [3]) | binding result [4]
B1 | binds | binds |  | 
B2 |  |  | binds | binds

— patent US20210017280A1 (EUREKA THERAPEUTICS, published 2021)
